From IntAct's records for PubMed 18617892

B1: Nuclear factor NF-kappa-B p100 subunit (Homo sapiens), Q00653 (parent)
chain: MESCYNPGLDGIIEYDDFKLNSSIVEPKEPAPETADGPYLVIVEQPKQRGFRFRYGCEGPSHGGLPGASSEKGRKTYPTVKICNYEGPAKIEVDLVTHSDPPRAHAHSLVGKQCSELGICAVSVGPKDMTAQFNNLGVLHVTKKNMMGTMIQKLQRQRLRSRPQGLTEAEQRELEQEAKELKKVMDLSIVRLRFSAFLRASDGSFSLPLKPVISQPIHDSKSPGASNLKISRMDKTAGSVRGGDEVYLLCDKVQKDDIEVRFYEDDENGWQAFGDFSPTDVHKQYAIVFRTPPYHKMKIERPVTVFLQLKRKRGGDVSDSKQFTYYPLVEDKEEVQRKRRKALPTFSQPFGGGSHMGGGSGGAAGGYGGAGGGGSLGFFPSSLAYSPYQSGAGPMGCYPGGGGGAQMAATVPSRDSGEEAAEPSAPSRTPQCEPQAPEMLQRAREYNARLFGLAQRSARALLDYGVTADARALLAGQRHLLTAQDENGDTPLHLAIIHGQTSVIEQIVYVIHHAQDLGVVNLTNHLHQTPLHLAVITGQTSVVSFLLRVGADPALLDRHGDSAMHLALRAGAGAPELLRALLQSGAPAVPQLLHMPDFEGLYPVHLAVRARSPECLDLLVDSGAEVEATERQGGRTALHLATEMEELGLVTHLVTKLRANVNARTFAGNTPLHLAAGLGYPTLTRLLLKAGADIHAENEEPLCPLPSPPTSDSDSDSEGPEKDTRSSFRGHTPLDLTCSTKVKTLLLNAAQNTMEPPLTPPSPAGPGLSLGDTALQNLEQLLDGPEAQGSWAELAERLGLRSLVDTYRQTTSPSGSLLRSYELAGGDLAGLLEALSDMGLEEGVRLLRGPETRDKLPSTAEVKEDSAYGSQSVEQEAEKLGPPPEPPGGLCHGHPQPQVH

Key:
fbw1a_human BTRC, Q9Y297 = variants of: B1; settings: with fbw1a_human BTRC
Chain of fbw1a_human BTRC, Q9Y297 (Q9Y297 whole entry): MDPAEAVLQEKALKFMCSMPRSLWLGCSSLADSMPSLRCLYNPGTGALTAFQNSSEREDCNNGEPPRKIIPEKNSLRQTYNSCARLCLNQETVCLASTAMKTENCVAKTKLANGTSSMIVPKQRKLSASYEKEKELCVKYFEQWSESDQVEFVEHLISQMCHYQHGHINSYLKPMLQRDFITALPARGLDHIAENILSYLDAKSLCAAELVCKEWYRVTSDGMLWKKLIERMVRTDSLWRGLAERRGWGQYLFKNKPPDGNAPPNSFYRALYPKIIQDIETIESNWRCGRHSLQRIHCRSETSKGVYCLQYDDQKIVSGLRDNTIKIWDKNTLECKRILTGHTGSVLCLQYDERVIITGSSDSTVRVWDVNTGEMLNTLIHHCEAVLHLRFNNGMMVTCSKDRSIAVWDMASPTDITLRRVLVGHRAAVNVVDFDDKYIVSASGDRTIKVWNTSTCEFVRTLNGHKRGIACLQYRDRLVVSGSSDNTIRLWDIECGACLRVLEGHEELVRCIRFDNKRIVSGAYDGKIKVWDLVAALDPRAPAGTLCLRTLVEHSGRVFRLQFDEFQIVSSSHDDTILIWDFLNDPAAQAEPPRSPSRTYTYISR

ubc_human UBC, P0CG48 = variants of: B1; settings: with ubc_human UBC
Chain of ubc_human UBC, P0CG48 (P0CG48 whole entry, looked up): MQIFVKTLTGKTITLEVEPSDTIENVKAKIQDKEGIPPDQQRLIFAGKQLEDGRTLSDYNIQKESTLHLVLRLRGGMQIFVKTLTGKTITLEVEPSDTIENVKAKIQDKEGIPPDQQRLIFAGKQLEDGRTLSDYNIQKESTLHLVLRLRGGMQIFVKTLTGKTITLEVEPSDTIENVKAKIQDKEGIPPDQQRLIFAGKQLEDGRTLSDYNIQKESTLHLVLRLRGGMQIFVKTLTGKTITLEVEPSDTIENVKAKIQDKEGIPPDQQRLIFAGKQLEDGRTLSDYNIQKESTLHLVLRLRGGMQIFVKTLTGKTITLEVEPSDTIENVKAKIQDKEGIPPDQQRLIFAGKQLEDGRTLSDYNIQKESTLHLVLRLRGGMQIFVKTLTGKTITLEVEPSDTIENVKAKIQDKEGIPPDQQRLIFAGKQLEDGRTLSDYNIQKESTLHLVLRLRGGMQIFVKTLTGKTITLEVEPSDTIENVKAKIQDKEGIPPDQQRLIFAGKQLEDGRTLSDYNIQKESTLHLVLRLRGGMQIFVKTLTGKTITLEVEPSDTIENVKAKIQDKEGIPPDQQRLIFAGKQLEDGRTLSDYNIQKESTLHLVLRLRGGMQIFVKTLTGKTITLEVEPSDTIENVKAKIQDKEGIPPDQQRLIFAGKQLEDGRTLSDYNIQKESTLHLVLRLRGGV

| effect of a mutation on the interaction (fbw1a_human BTRC, Q9Y297) | effect of a mutation on the interaction (ubc_human UBC, P0CG48) | Variant |
| --- | --- | --- |
| decreasing interaction | decreasing interaction | K90R |
| decreasing interaction | decreasing interaction | K689R |
| decreasing interaction | decreasing interaction | K863R |
| decreasing interaction | decreasing interaction | K298R |
